Reference: patent publication US10206886B2, “Lipid nanoparticles for wound healing” (Praxis Biopharma Research Institute, priority 2013, dated 2019)

Assays:
Large White pigs [1] = experiment: Histological assessment in pigs: wound maturity and healing quality (Cotran criteria); assay type: in vivo; settings: rhEGF-NLC 20 μg topically, free rhEGF 75 μg intralesionally
Protocol: (§1) Treatment administration began 24 hours after wound induction (day 1 of the study) to allow primary homeostasis, platelet adhesion and aggregation, and activation of the coagulation cascade. The animals were randomly divided into three groups (n=2): (i) empty NLC, (ii) 20 μg rhEGF-NLC and (iii) 75 μg free rhEGF. Nanoparticles previously resuspended in 150 μl of vehicle (0.5% carboxymethylcellulose in 0.9% saline) were topically administered twice a week by spreading them over the wound bed. Free rhEGF, resuspended in 1 ml of vehicle, was intralesionally administered twice a week.
Complete skin thickness biopsies from the centre of the unhealed wound to the healthy margin (2 mm) were collected using a sterile scalpel. Collected samples were immediately fixed in 4% formalin, embedded in paraffin and excised in 5-μm thick layers. Samples were stained with haematoxilyn-eosin (HE) for morphological observations. Biopsies were collected on day 15 for wounds 1, 2 and 3 and on days 25 and 43 for all of the wounds. On day 36, wound images were taken but no biopsies were collected not to delay wound healing.
Wound healing was determined in terms of the re-epithelization grade by measuring the newly formed epithelia, and wound maturity and healing quality according to the Cotran et al. (2000) criteria.

db/db mice [2] = experiment: Histological estimation of wound healing: re-epithelization score (Sinha criteria 0-4); assay type: in vivo; settings: 75 μg rhEGF intralesionally (free rhEGF twice a week; rhEGF-MS once), scale 0-4
Large White pigs [3] = experiment: In vivo wound healing in pigs, serial analysis of healed wounds (closure above 95%); settings: rhEGF-NLC 20 μg topically, free rhEGF 75 μg intralesionally, twice a week
Description: All the protocols and procedures used were previously approved by the Institutional Animal Care and Use Committee from the Jesús Usón Minimally Invasive Surgery Centre (JUMISC). Six female Large White pigs, with a mean weight of 26.82±2.90 kg at the beginning of the study, distributed in individual pens of 2.90 m×1.35 m were used. All the animals of the study were randomly distributed in acclimated rooms, where the following housing conditions were established: 12-hour light-dark cycle, temperature between 20 and 25° C., eight air changes per hour with HEPA-filtered ventilation and relative humidity between 50 and 70%. As pen environmental enrichment, hanging chains and chewing rubber toys were installed as chewable elements. After an acclimatization period, the animals were identified by ear tag codes to be included in the study. […]
Wound healing kinetic was determined by measuring the wound closure (percentage of initial wound area closed) on days 1, 15, 25, 36 and 43. The wound area was assessed, in a standardized manner, taken photographs perpendicularly to the wound surface, using the same illumination and placing a transparent plastic sterile ruler next to the wounds to introduce a metric reference in the pictures for further processing. The wound area was calculated using the image software ImageJ (see section 5.3). […]

Balb/C 3T3 fibroblast = experiment: Proliferation assay with rhEGF-loaded nanoparticles (CCK-8); assay type: cell-based; settings: 15 ng/ml rhEGF, after 48 hours and 72 hours, FIG. 1
Protocol: 24-well plate was used for the proliferation assay. 35000 Balb/C 3T3 fibroblast resuspended in 1 ml of completed culture medium (DMEM supplemented with 10% FCS) were seeded in each well. After 8 hours of incubation, the medium was replaced by 1 ml of 0.2% FCS supplemented DMEM and cells were incubated overnight. Then, medium was replaced by 1 ml of: (i) 0.2% FCS-supplemented DMEM, (ii) 15 ng/ml of free rhEGF in 0.2% FCS-supplemented DMEM, (iii) empty SLN in 0.2% FCS-supplemented DMEM, (iv) 15 ng/ml of rhEGF-loaded SLN (rhEGF-SLN) in 0.2% FCS-supplemented DMEM, (v) empty NLC in 0.2% FCS-supplemented DMEM and (vi) 15 ng/ml of rhEGF-loaded NLC (rhEGF-NLC) in 0.2% FCS-supplemented DMEM.
The cells were cultured under the same conditions for 24 hours, 48 hours and 72 hours. The experiments were performed in triplicate. After the different incubation intervals, 100 μl of CCK-8 (Sigma-Aldrich, Saint Louise, USA) was added to each well (Zhou, Y., Qian, M., Liang, Y., Liu, Y., Yang, X., Jiang, T., Wang, Y., 2011. Effects of Leukemia Inhibitory Factor on Proliferation and Odontoblastic Differentiation of Human Dental Pulp Cells. J. Endod. 37, 819-824). After 4 hours of incubation, absorbance was read at 450 nm and at 650 nm as the reference wavelength. The absorbance was directly proportional to the number of living cells in culture.

[4] = rhEGF plasma concentration (systemic absorption), ELISA; assay type: in vivo, pigs; settings: 30 minutes after first dose; free rhEGF 75 μg intralesionally
Protocol: as §1
In addition, plasma samples from the rhEGF-NLC and free rhEGF treated animals were collected to assess rhEGF systemic absorption. rhEGF detection was performed by ELISA (human EGF ELISA development kit, PeproTech). Samples were drawn when the plasma rhEGF levels were expected to be higher. Thus, samples from the animals treated with rhEGF-NLC were collected on day 1 of the experiment (prior to the treatment administration), 4 hours and 24 hours after administration. Plasma samples from the animals treated with free rhEGF were obtained just after administration and 30 minutes after the first dose. […]

db/db mice [5] = experiment: In vivo wound healing, wound closure (wound area); settings: 75 μg rhEGF intralesionally (free rhEGF twice a week; rhEGF-MS once)
db/db mice [6] = experiment: Histological estimation of wound healing: inflammation score (Cotran scale 0-4); assay type: in vivo; settings: 75 μg rhEGF intralesionally (free rhEGF twice a week; rhEGF-MS once)

B1: free rhEGF: Non-encapsulated recombinant human epidermal growth factor; 75 μg of lyophilised rhEGF similar to commercialised Heberprot (protein, UniProt P01133 23-1207, looked up)
Pro-epidermal growth factor: PQHWSCPEGTLAGNGNSTCVGPAPFLIFSHGNSIFRIDTEGTNYEQLVVDAGVSVIMDFHYNEKRIYWVDLERQLLQRVFLNGSRQERVCNIEKNVSGMAINWINEEVIWSNQQEGIITVTDMKGNNSHILLSALKYPANVAVDPVERFIFWSSEVAGSLYRADLDGVGVKALLETSEKITAVSLDVLDKRLFWIQYNREGSNSLICSCDYDGGSVHISKHPTQHNLFAMSLFGDRIFYSTWKMKTIWIANKHTGKDMVRINLHSSFVPLGELKVVHPLAQPKAEDDTWEPEQKLCKLRKGNCSSTVCGQDLQSHLCMCAEGYALSRDRKYCEDVNECAFWNHGCTLGCKNTPGSYYCTCPVGFVLLPDGKRCHQLVSCPRNVSECSHDCVLTSEGPLCFCPEGSVLERDGKTCSGCSSPDNGGCSQLCVPLSPVSWECDCFPGYDLQLDEKSCAASGPQPFLLFANSQDIRHMHFDGTDYGTLLSQQMGMVYALDHDPVENKIYFAHTALKWIERANMDGSQRERLIEEGVDVPEGLAVDWIGRRFYWTDRGKSLIGRSDLNGKRSKIITKENISQPRGIAVHPMAKRLFWTDTGINPRIESSSLQGLGRLVIASSDLIWPSGITIDFLTDKLYWCDAKQSVIEMANLDGSKRRRLTQNDVGHPFAVAVFEDYVWFSDWAMPSVMRVNKRTGKDRVRLQGSMLKPSSLVVVHPLAKPGADPCLYQNGGCEHICKKRLGTAWCSCREGFMKASDGKTCLALDGHQLLAGGEVDLKNQVTPLDILSKTRVSEDNITESQHMLVAEIMVSDQDDCAPVGCSMYARCISEGEDATCQCLKGFAGDGKLCSDIDECEMGVPVCPPASSKCINTEGGYVCRCSEGYQGDGIHCLDIDECQLGEHSCGENASCTNTEGGYTCMCAGRLSEPGLICPDSTPPPHLREDDHHYSVRNSDSECPLSHDGYCLHDGVCMYIEALDKYACNCVVGYIGERCQYRDLKWWELRHAGHGQQQKVIVVAVCVVVLVMLLLLSLWGAHYYRTQKLLSKNPKNPYEESSRDVRSRRPADTEDGMSSCPQPWFVVIKEHQDLKNGGQPVAGEDGQAADGSMQPTSWRQEPQLCGMGTEQGCWIPVSSDKGSCPQVMERSFHMPSYGTQTLEGGVEKPHSLLSANPLWQQRALDPPHQMELTQ
modifications: Pro-epidermal growth factor
notes: Non-encapsulated recombinant human epidermal growth factor; 75 μg of lyophilised rhEGF similar to commercialised Heberprot
- extension of inflammatory tissue (Grade 2) (Large White pigs [1]; day 15, FIG. 10A): mainly showed a diffuse acute inflammation
- wound maturity and healing quality (healing grade) (Large White pigs [1]; day 25, FIG. 10B): still showed chronic inflammation
- Re-epithelization score Day 8 (db/db mice [2]): 1.25±0.89
- Re-epithelization score Day 16 (db/db mice [2]): 2.71 ± 0.49
- Re-epithelization score Day 8 (db/db mice [2]; listed as Free rhEGF): 1.25 ± 0.89
- percentage of healed wounds (Large White pigs [3]; day 25): 40%
- wound closure state (Large White pigs [3]; day 36): completely closed
- cell proliferation compared with control groups (Balb/C 3T3 fibroblast): greater cell proliferation
- rhEGF plasma concentrations [4]: 0.20 ± 0.01 ng/mL
- Wound healing 4th day (db/db mice [5]): 8.42 ± 3.96%
- Wound healing 7th day (db/db mice [5]): 19.94 ± 5.21%
- Wound healing 11th day (db/db mice [5]): 44.80 ± 2.64%
- Wound healing 14th day (db/db mice [5]): 61.83 ± 2.99%
- Inflammation score Day 16 (db/db mice [6]): 2.75 ± 0.95
- Inflammation score Day 8 (db/db mice [6]; listed as Free rhEGF): 1.75 ± 0.71
- Inflammation score Day 8 (db/db mice [6]; listed as rhEGF): 2.13±0.64
